One molecule from patent US20200048644A1 can be followed below.

This assay addresses recombinant GPIb. Put plainly: GPIb binding activity test of the purified product (format not described; FIG. 9).

B1: recombinant Agkisacutacin (heterodimer snake venom protein, A chain and B chain, expressed in Pichia pastoris GS115) (protein)
chain 1: DVDCLPGWSAYDQSCYRVFKLLKTWDDAEKFCTERPKGGHLVSIESAGERDFVAQLVSENKQTDNVWLGLKIQSKGQQCSTEWTDGSSVSYENFSEYQSKKCFVEKNTGFRTWLNLNCGSEYAFVCKSPP
chain 2: GFCCPLRWSSYEGHCYLVVKEKKTWDDAEKFCTEQRKGGHLVSVHSREEADFLVHLAYPILDLSLIWMGLSNMWNDCKREWSDGTKLDFKAWAKTSDCLIGKTDDNQWLNMDCSKKHYFVCKFKL
Take B1: the equilibrium dissociation constant (Kd) came to 100 nM.

One may read the Kd as the free concentration of one partner at which half of the binding sites on the other are occupied at equilibrium, for simple one-to-one binding.
